Laboratory results: US7691567B2, “Methods and compositions relating to fortilin, an anti-apoptotic molecule, and modulators of fortilin” (Board of Regents, the University of Texas System, priority 2000, dated 2010)
“Also recorded” adds a separate entry of the source. Where two headings read alike, the source gives them in different places.

Columns and labels:
[1] = tested on: caspase 3-like activity; assay: Assay of caspase 3-like activity in U2OS stable transfectants (Z-DEVD-AFC); assay type: cell-based
Experimental: Assay of caspase 3-like activity. Approximately 2×10^6 U2OS stable transfectants, either expressing Fortilin (U2OS.F) or harboring empty expression vector (U2OS.E), both of which have been characterized above, were challenged either with dimethyl sulfoxide (DMSO) (vehicle) or with etoposide at a final concentration of 10 μg/mL for 48 hours. Caspase 3-like activity was then determined as previously described (Mannick et al., 1999). In brief, cytosolic proteins were extracted in hypotonic cell lysis buffer (25 mM HEPES, pH 7.5, 5 mM MgCl2, 5 mM EDTA, 5 mM dithiothreitol, 0.05% phenylmethylsulfonyl fluoride [PMSF]; all from Sigma) by three cycles of freezing and thawing. The protein concentration of samples was determined by using a BioRad Bradford protein assay kit (BioRad). Ten micrograms of cytosolic extracts were added to caspase assay buffer (312.5 mM HEPES, pH 7.5, 31.25% sucrose, 0.3125% CHAPS) with Z-DEVD-AFC as substrates (CalBiochem, San Diego, Calif.). Release of 7-amido-4-(trifluoromethyl)coumarin (AFC) was quantified, after 2 hours of incubation at 37° C. (or, in the case of time course experiment, every 10 minutes), using a Fluoroskan system (Thermo-Labsystems, Helsinki, Finland) set to an excitation value of 355 nm and emission value of 525 nm. The results were expressed as relative fluorescence unit (R.F.U.) per microgram of protein.

[2] = tested on: U2OS cells; assay: Bax-mediated apoptosis in transfected U2OS cells (apoptotic index); assay type: cell-based; settings: for prevention of Bax mediated apoptosis (apoptotic index): U2OS cells cotransfected with Bax-pcDNA3, thirty hours after transfection
Experimental: The amount of LacZ-pFLAG was 1/10 to 1/20 (w/w) of total amounts of DNA added. Thirty hours after the transfection, cells were stained with X-gal. Blue cells represented cells expressing Bax, β-galactosidase and indicated proteins in question. At least 300 blue cells were counted and evaluated for plasma membrane morphology. Rounded cells were counted as apoptotic. Apoptotic index was calculated as the number of blue apoptotic cells divided by the number of total blue cells counted, expressed in percentage. Without the expression of Bax, there was a modest amount of background cell death noted (Lane 6). On the other hand, the presence of Bax caused 2 holds increase in the number of apoptotic cells (Lane 5). […] Taken together, the ability of Fortilin to inhibit Bax mediated apoptosis is mediated by its interaction with MCL1.

[3] = tested on: H1299 cells; assay: p53-mediated apoptosis in transfected H1299 cells (apoptotic index); assay type: cell-based; settings: overexpression, thirty hours after transfection
Experimental: Because wild-type p53 can induce apoptosis, the ability of Fortilin to prevent or inhibit p53-mediated apoptosis was examined. H1299 cells were transfected with indicated combinations of mammalian expression constructs. Thirty hours after the transfection, cells were fixed and stained for beta-galactosidase activities. Cells that were round in shape with significant membrane irregularity were counted as apoptotic (FIG. 5). Apoptotic index was calculated as (Blue cells with apoptotic plasma membrane morphology)/(Total blue cells counted)×100.

[4] = tested on: HeLa cells; assay: Cell death assay: etoposide-induced apoptosis in transfected HeLa cells (apoptotic index); assay type: cell-based; settings: HeLa cells overexpressing FLAG-tagged protein; 5 μg/mL etoposide 12 hours
Experimental: Cell death assay: The experiment was performed in duplicate and repeated at least three times. A total of […] HeLa cells were seeded in each well of a 4-well Lab-Teck™ chamber slides (Nalge Nunc International), and transfected with pFLAG containing Fortilin or other control cDNAs, using FuGENE6 (Roche). Twenty-four hours after the transfection, the cells were challenged by 5 μg/mL etoposide for 12 hours. Cells were stained for the FLAG-epitope using anti-FLAG antibody (M2, Sigma Co) and anti-mouse IgG conjugated to Rhodamine Red X (Jackson ImmunoResearch Laboratories). The nuclei were stained with DAPI (4,6-Diamidino-2-phenylindole, Sigma Co). Cells were then examined under a Zeiss AXIOSKOP fluorescent microscope (Carl Zeiss Ltd.), using appropriate filter sets. Cells that emitted red fluorescence were evaluated for their nuclear morphology. Condensed or fragmented nuclei were counted as apoptotic. An apoptotic index was then calculated as the number of red cells with apoptotic nuclear morphology divided by the number of total red cells counted and multiplied by 100.
Statistical analysis: For the analysis of statistical significance of apoptotic indices among cells transfected with different plasmids, Dunnett's T tests were performed. In all cases, the confidence intervals were 0.95 with the alpha value of 0.05. For the statistical evaluation of the significant linear trend between the amount of plasmids used for the transfection and apoptotic indices, ANOVA (Analysis of Variance) regression analysis was employed. […] For the analysis of statistical significance of possible correlation between the degree of malignancy and the indices of Fortilin immunoreactivity, Dunnett's multiple range tests were performed.

[5] = tested on: p53 transactivation of Bax gene; assay: p53 transactivation of Bax gene, p-Bax-RE-Luc luciferase reporter in H1299 cells; assay type: cell-based; settings: twenty-four hours after transfection
Experimental: The ability of Fortilin to interfere with transactivation of the Bax gene by p53 was investigated. Non-small cell lung cancer cell line H1299 cells were transfected with p53-pcDNA3, LacZ-pFLAG, p-Bax-RE-Luc (a plasmid encoding the Luciferase gene under the control of the Bax responsive element) and pFLAG vector encoding Bcl-2, MCL1, Fortilin or truncated Fortilin as indicated in FIG. 6. Twenty-four hours after the transfection, luciferase activity was measured and normalized to the β-galactosidase activity, the latter representing transfection efficiency.
Next, studies were conducted to determine whether the inhibition was dosage dependent. H1299 cells were transfected with p53-pcDNA3, LacZ-pFLAG, p-Bax-RE-Luc and various amount of Fortilin-pFLAG. The total amount of DNA added was adjusted by the addition of empty pFLAG vector. Twenty-four hours after the transfection, luciferase activity was measured and normalized to the β-galactosidase activity.

[6] = tested on: U2OS cells; settings: U2OS stable transfectants of HA-tagged Fortilin or deletion mutants, 5 μg/mL etoposide 48 hours
Text: Generation and characterization of U2OS cells stably expressing Fortilin. U2OS cells were transfected with empty pcDNA6, a mammalian expression vector containing a blasticidine resistance gene (Invitrogen, Carlsbad, Calif.), or with pcDNA6 vector encoding wild-type Fortilin, by using FuGENE6 (Roche Molecular Biochemicals) according to the manufacturer's instructions. Transfected cells were selected for approximately 3 weeks and characterized by Western blot analysis. For the cytotoxicity assay, U2OS cells stably expressing wild-type Fortilin (U2OS.F) and U2OS cells stably harboring empty pcDNA6 (U2OS.E) were seeded in a 96 well plate in quadruplicate. For the investigation of dose response, cells were challenged with various concentrations of etoposide (0-20 μg/mL) for 48 hours. For the time course study, cells were challenged with 5 μg/mL of etoposide and harvested after various incubation periods (0-96 hours). In both cases, the cell media were assayed for the lactate dehydrogenase (LDH) activity released from the cytosol of damaged cells, using a cytotoxicity detection kit (Roche Molecular Biochemicals) according to the manufacturer's instructions. The cytotoxicity index was calculated as follows: (LDH activity in the media−background LDH activity)÷(LDH activity in the medium of cells lysed by 1% Triton X-100−background LDH activity)×100.
Cell death assay. U2OS cells stably expressing Fortilin or its mutants were seeded in 96-well plates in triplicate. Cells were then challenged with 5 μg/mL of etoposide (Sigma) for 48 hours. Then the cell media were assayed for the lactate dehydrogenase (LDH) activity released from the cytosol of damaged cells, using a Cytotoxicity Detection Kit (Roche Molecular Biochemicals), according to the manufacturer's instructions. The cytotoxicity index was calculated as follows: (LDH activity in the media−background LDH activity)/(LDH activity in the medium of the cells lysed by 1% Triton X-100−background LDH activity)×100.
Statistical analysis. For analysis of the statistical significance of differences in cytotoxicity indices among cells stably transfected with Fortilin, its mutants or control plasmids, Student's t-test was performed using a commercial software (Minitab Inc., State College, Pa.). In all cases, a P-value less than 0.05 was considered to be statistically significant.

[7] = target: T1, MCL1 (Homo sapiens, UniProt Q07820); assay: Yeast two-hybrid assay, X-gal filter lift; assay type: binding; settings: Saccharomyces cerevisiae SFY526 cells
Text: Yeast two-hybrid assay. Saccharomyces cerevisiae SFY526 cells (CloneTech) were cotransformed with (a) empty pAS2.1 vector or pAS2.1 vector containing a full-length MCL1 construct and (b) empty pACT2 vector or pACT2 vector containing FL1, the original clone isolated from yeast two-hybrid screening and representative of the nearly full-length Fortilin molecule (amino acids 5-172). FL1 was redesignated as FortilinΔ5-172. Transformed cells were selected on SD plates lacking tryptophan and leucine (SD/-Trp/-Leu plates) for 7 days and subjected to a X-gal filter lift assay as described above. The blue color that developed within 8 hours was considered to represent a positive interaction.
The yeast two-hybrid system was employed to evaluate any interaction between Fortilin and MCL1. Saccharomyces cerevisiae SFY526 cells were co-transformed with pAS2.1 or pAS2.1-MCL1 and pGAD GH or pGAD GH-FL1, the 5th-172st amino acids of Fortilin. Transformed cells were selected on SD/-Trp/-Leu plates. Grown colonies on these selection plates were subjected to a X-gal filter lift assay, as the reporter gene was […] under the control of a promoter containing the element recognized by the DNA binding domain. […] MCL1 consists of four BH (Bcl-2 homology) domains and two PEST (proline (P), glutamic acid (E), serine (S) and threonine (T)) sequences. “CHT” denotes the C-terminus Hydrophobic Tail. […]

[8] = target: T1, MCL1; assay: In vitro pull-down assay of HA-tagged Fortilin or mutants with MCL1; assay type: binding; settings: in vitro translated 35S-labeled proteins, anti-HA pull-down
[9] = target: T1, MCL1; assay: In vivo coimmunoprecipitation assay in U2OS stable transfectants of Fortilin and mutants; settings: anti-HA immunoprecipitation
Text: In vivo coimmunoprecipitation assay. COS-7 cells (2.5×10^6) were cotransfected with pcDNA3-Fortilin-HA or pcDNA3 and with FLAG-MCL1/pFLAG-CMV or pFLAG-CMV vectors using FuGENE6 (Roche Molecular Biochemicals), according to the manufacturer's instructions. […] Formed complexes were precipitated by sheep anti-rat antibodies conjugated to Dynabead™ (Dynal USA); washed with Buffers A and B; eluted into SDS gel loading buffer; and subjected to SDS-PAGE, Western blot transfer and immuodetection with anti-HA (16B12; Covance, Richmond, Calif.) and anti-FLAG (M2; Sigma) antibodies. […] Cells were harvested by scraping, washed with chilled PBS, suspended in Buffer C (Buffer A supplemented with 0.02% NP-40), and lysed by a nitrogen cavitation method (PARR Instrument Co). […] Formed complexes were precipitated by sheep anti-rat antibodies conjugated to Dynabeads™ (Dynal USA); washed with Buffers C; eluted into SDS gel loading buffer; and subjected to SDS-PAGE, Western blot transfer and immuodetection with anti-HA (16B12; Covance, Richmond, Calif.) and anti-MCL1 (Santa Cruz Biotechnology) antibodies.

T1 sequence (Q07820 whole entry, the tested form may be a part): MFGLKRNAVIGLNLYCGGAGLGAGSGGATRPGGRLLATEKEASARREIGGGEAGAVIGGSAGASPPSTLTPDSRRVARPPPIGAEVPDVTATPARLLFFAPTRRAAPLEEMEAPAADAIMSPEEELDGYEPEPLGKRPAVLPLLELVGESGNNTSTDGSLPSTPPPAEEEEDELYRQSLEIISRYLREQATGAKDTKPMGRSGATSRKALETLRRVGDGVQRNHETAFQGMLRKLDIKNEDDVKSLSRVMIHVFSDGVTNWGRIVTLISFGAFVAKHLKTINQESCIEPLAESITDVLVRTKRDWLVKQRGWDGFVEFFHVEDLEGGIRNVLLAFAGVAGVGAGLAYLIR

COc1cc([C@@H]2c3cc4c(cc3[C@@H](O[C@@H]3O[C@@H]5CO[C@@H](C)O[C@H]5[C@H](O)[C@H]3O)[C@H]3COC(=O)[C@H]23)OCO4)cc(OC)c1O [etoposide, reference compound]
caspase-3-like activity index ([1]; control U2OS.E cells (empty vector), etoposide 10 μg/mL 48 hours): 1488.1±58.7 R.F.U./μg protein
increase in caspase-3-like activity ([1]; control U2OS.E cells, etoposide challenge vs no etoposide): 9.4 fold

Bax: pro-apoptotic protein expressed from Bax-pcDNA3 to induce apoptosis [reference compound]
increase in the number of apoptotic cells ([2]; U2OS cells, Bax expression versus without Bax): 2 holds

Bcl-2: anti-apoptotic protein overexpressed as comparator [reference compound]
suppression of p53 induced apoptosis (apoptotic index) [3]: statistically significant (p<0.001) suppression of p53-induced apoptosis; also recorded: statistically significant (p<0.001) suppression of p53 induced apoptosis

Bcl-xL: a Bcl-2 family protein, overexpressed as anti-apoptotic comparator
prevention of Etoposide-induced apoptosis (apoptotic index) [4]: prevented HeLa cells from undergoing Etoposide-induced apoptosis in a statistically significant fashion

MCL1: Myeloid Cell Leukemia 1, a Bcl-2 homologue, anti-apoptotic protein [reference compound]
prevention of Etoposide-induced apoptosis (apoptotic index) [4]: prevented HeLa cells from undergoing Etoposide-induced apoptosis in a statistically significant fashion
suppression of p53 induced apoptosis (apoptotic index) [3]: statistically significant (p<0.001) suppression of p53-induced apoptosis; also recorded: statistically significant (p<0.001) suppression of p53 induced apoptosis
inhibition of p53 transactivation of Bax gene (luciferase normalized to β-galactosidase) [5]: inhibited p53 transactivation of the Bax gene
prevention of Bax mediated apoptosis (apoptotic index) [2]: prevented cells from undergoing Bax mediated apoptosis

B1: FortilinΔ23-172: mutant of Fortilin representing 23rd-172nd amino acids of Fortilin (protein)
chain: IADGLCLEVEGKMVSRTEGNIDDSLIGGNASAEGPEGEGTESTVITGVDIVMNHHLQETSFTKEAYKKYIKDYMKSIKGKLEEQRPERVKPFMTGAAEQIKHILANFKNYQFFIGENMNPDGMVALLDYREDGVTPYMIFFKDGLEMEKC
suppression of p53 induced apoptosis (apoptotic index) ([3]; listed as Fortilin(23-172)): did not significantly prevent p53-mediated apoptosis; also recorded: did not significantly prevent p53 mediated apoptosis
inhibition of p53 transactivation of Bax gene (luciferase normalized to β-galactosidase) ([5]; listed as truncated Fortilin (23-172)): inhibited p53 transactivation of the Bax gene
prevention of Bax mediated apoptosis (apoptotic index) [2]: failed to prevent cells from undergoing Bax mediated apoptosis
cytotoxicity index relative to control transfectants [6]: could not prevent cells from undergoing etoposide-induced cell death and instead sensitized the cells to etoposide-induced cell death
cytotoxicity index relative to control transfectants ([6]; listed as fortilinΔ23-172): significantly higher than that of control cells

B2: FortilinΔ46-172: Fortilin deletion mutant that lacks 26% of wild type Fortilin (protein)
chain: SLIGGNASAEGPEGEGTESTVITGVDIVMNHHLQETSFTKEAYKKYIKDYMKSIKGKLEEQRPERVKPFMTGAAEQIKHILANFKNYQFFIGENMNPDGMVALLDYREDGVTPYMIFFKDGLEMEKC
modifications: left off: small tags and cut ends
notes: Fortilin deletion mutant that lacks 26% of wild type Fortilin
cytotoxicity index relative to control transfectants [6]: significantly lower than the cytotoxicity index of control cells
cytotoxicity index relative to control transfectants ([6]; listed as FortilinΔ45-172): still capable of protecting cells, albeit modestly, from etoposide-induced cell death

B3: FortilinΔ5-172: nearly full-length Fortilin molecule (amino acids 5-172) (protein)
chain: RDLISHDEMFSDIYKIREIADGLCLEVEGKMVSRTEGNIDDSLIGGNASAEGPEGEGTESTVITGVDIVMNHHLQETSFTKEAYKKYIKDYMKSIKGKLEEQRPERVKPFMTGAAEQIKHILANFKNYQFFIGENMNPDGMVALLDYREDGVTPYMIFFKDGLEMEKC
modifications: left off: small tags and cut ends
interaction with MCL1 in yeast (X-gal activity) [7]: X-gal activity was observed
interaction / co-immunoprecipitation with MCL1 in vitro [8]: interacted
interaction / co-immunoprecipitation with MCL1 in vitro ([8]; listed as Fortilin (5-172)): co-immunoprecipitated MCL1 in vitro
cytotoxicity index relative to control transfectants [6]: significantly lower
cytotoxicity index relative to control transfectants ([6]; listed as fortilinΔ5-172): significantly lower than the cytotoxicity index of control cells
co-immunoprecipitation of MCL1 in vivo [9]: co-immunoprecipitated MCL1
